Patent US20190062438A1 (CSL, published 2019)

Legend:
Experiment in all cases: SPR, Fab over captured mutant
[1] = target: T1, shCD131 T106A (human, UniProt P32927 17-438)
T1 construct: C-terminal 6xHis
T1 sequence: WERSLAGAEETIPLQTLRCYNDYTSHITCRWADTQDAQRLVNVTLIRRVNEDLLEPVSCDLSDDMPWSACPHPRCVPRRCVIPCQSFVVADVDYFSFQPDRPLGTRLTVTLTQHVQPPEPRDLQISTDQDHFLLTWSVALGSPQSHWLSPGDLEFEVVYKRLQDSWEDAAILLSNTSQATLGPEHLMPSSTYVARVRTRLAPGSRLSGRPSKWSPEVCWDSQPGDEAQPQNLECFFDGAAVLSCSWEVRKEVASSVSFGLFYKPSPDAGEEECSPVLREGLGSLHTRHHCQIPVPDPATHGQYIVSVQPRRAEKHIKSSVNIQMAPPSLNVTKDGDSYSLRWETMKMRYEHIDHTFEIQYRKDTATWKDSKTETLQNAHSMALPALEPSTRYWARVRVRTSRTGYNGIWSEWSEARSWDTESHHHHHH
Protocol: For some analysis purified Fab was injected over each flow cell for 3 minutes and dissociation was monitored for a further 10 minutes. Regeneration of the surface was performed after each cycle with a 40 second injection of 25 mM glycine, pH 2.0. The analysis was performed with Fabs at several concentrations between 100 and 0.31 nM, with each concentration analyzed twice and in random order. The analysis was performed at a flow rate of 30 μl/min in HBS-EP buffer (10 mM Hepes, 150 mM NaCl, 3 mM EDTA, 0.005% Tween 20, pH 7.4) at 37° C. Responses from spots 2 and 4 of each flow cell, (in which shβc was not captured, but otherwise treated identically), were subtracted from those of spots 1 and 5 respectively to produce reference subtracted data. Reference subtracted responses from a blank injection comprising buffer alone were subtracted from the resultant sensorgrams to produce double referenced data suitable for kinetic analysis. […]
Mapping of the shCD131 epitope was performed by measurement of the affinity of Fabs for various alanine point mutants of shCD131 essentially as described above, with the following exceptions. […] For kinetic analysis, purified recombinant Fabs were injected for 2 minutes, and dissociation was monitored for a further 2 minutes. […] Kinetic parameters were determined as described above.

[2] = target: T2, shCD131 F103A (human, UniProt P32927 17-438)
T2 construct: C-terminal 6xHis
T2 sequence: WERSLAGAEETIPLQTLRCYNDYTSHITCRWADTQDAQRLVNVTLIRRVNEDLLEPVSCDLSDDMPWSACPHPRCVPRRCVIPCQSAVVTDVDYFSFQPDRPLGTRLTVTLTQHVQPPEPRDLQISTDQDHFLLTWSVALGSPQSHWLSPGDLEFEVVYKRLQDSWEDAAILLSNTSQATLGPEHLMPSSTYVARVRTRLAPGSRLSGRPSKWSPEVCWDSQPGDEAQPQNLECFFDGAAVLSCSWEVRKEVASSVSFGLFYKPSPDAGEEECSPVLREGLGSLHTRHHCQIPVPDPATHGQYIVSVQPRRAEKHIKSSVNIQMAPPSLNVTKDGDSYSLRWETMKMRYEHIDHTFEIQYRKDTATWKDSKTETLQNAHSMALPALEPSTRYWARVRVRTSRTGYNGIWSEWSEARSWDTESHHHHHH
Protocol: (§1) As shβc is a dimer, kinetics assays were performed with shβc captured on the sensor surface, and purified Fab injected as the analyte. Avidity effects were avoided by the use of Fab rather than whole IgG.
(§2) shCD131 was captured on spots 1 and 5 of each flow cell for 2 minutes at a concentration of 0.4 μg/ml. […] For some analysis purified Fab was injected over each flow cell for 3 minutes and dissociation was monitored for a further 10 minutes. Regeneration of the surface was performed after each cycle with a 40 second injection of 25 mM glycine, pH 2.0. The analysis was performed with Fabs at several concentrations between 100 and 0.31 nM, with each concentration analyzed twice and in random order. The analysis was performed at a flow rate of 30 μl/min in HBS-EP buffer (10 mM Hepes, 150 mM NaCl, 3 mM EDTA, 0.005% Tween 20, pH 7.4) at 37° C. Responses from spots 2 and 4 of each flow cell, (in which shβc was not captured, but otherwise treated identically), were subtracted from those of spots 1 and 5 respectively to produce reference subtracted data. Reference subtracted responses from a blank injection comprising buffer alone were subtracted from the resultant sensorgrams to produce double referenced data suitable for kinetic analysis. Double-referenced sensorgrams were fitted using non-linear regression to a model describing 1:1 kinetics, including a term for mass transport limitation. The Rₘₐₓ value was fitted locally to account for slight deviations in the level of sCD131 captured, with association rate (kₐ), dissociation rate (kd) and equilibrium dissociation constant (KD) fitted globally.
(§3) Mapping of the shCD131 epitope was performed by measurement of the affinity of Fabs for various alanine point mutants of shCD131 essentially as described above, with the following exceptions. Each shCD131 mutant was captured for 120 seconds at concentrations between 1 and 5 μg/ml. For kinetic analysis, purified recombinant Fabs were injected for 2 minutes, and dissociation was monitored for a further 2 minutes. […] Fab concentrations ranged from 16 μM to 3.9 nM in two-fold dilutions.

[3] = target: T3, shCD131 Y365A (human, UniProt P32927 17-438)
T3 construct: C-terminal 6xHis
T3 sequence: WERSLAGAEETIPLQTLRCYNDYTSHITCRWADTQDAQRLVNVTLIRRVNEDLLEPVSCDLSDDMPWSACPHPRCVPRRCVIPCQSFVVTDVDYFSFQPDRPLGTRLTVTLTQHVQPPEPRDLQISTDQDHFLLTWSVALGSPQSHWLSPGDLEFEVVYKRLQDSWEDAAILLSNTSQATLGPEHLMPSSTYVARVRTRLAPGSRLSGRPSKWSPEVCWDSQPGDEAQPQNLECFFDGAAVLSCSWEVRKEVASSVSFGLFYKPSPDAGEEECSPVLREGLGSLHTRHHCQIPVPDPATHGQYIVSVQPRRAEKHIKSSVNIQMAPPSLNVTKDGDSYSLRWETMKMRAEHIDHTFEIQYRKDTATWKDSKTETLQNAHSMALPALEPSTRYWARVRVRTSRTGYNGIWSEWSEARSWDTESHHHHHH
Protocol: as §1, §2, §3

fold increase in affinity relative to WT shCD131 [1]: ~10 fold
binding result [2]: no binding (tested: Fab up to 16 µM)
binding result [3]: no binding (tested: Fab up to 16 µM)
B1: 9A2 Fab (Fab, V domains shown)
VH: EVQLLESGGGLVQPGGSLRLSCAASGFTFSHYHMLWVRQAPGKGLEWVSSIRSSGGFTYYADSVKGRFTISRDNSKNTLYLQMNSLRAEDTAVYYCARFYDSFFDIWGQGTMVTVSS
VL: DIQMTQSPSSVSASVGDRVTITCRASQGISSWLAWYQQKPGKAPKLLIYAASSLQSGVPSRFSGSGSGTDFTLTISSLQPEDFATYYCQQANSFPITFGQGTRLEIKR
notes: also called recombinant Fab of 9A2
